From patent publication US12497460B2, “Anti-MSR1 antibodies and methods of use thereof” (REGENERON PHARMACEUTICALS, INC., priority 2018, dated 2025)
Like-named read-outs stand apart in the source and are kept apart here. Marks after values point to notes of the source that are not given here.

Legend:
[1] = test system: HEK293.mfMSR1 cells (monkey MSR1); assay: Electrochemiluminescence antibody binding assay on MSR1-expressing cells; assay type: cell-based, Macaca fascicularis
[2] = biological target: T1, Ox-LDL binding to His9-hMSR1 (Homo sapiens, UniProt P21757); assay: Competition sandwich ELISA, blocking of Ox-LDL binding; conditions: antibody 500 nM, Ox-LDL 10 nM
T1 construct: human MSR1 extracellular domain expressed with a N-terminal nonahistidine tag; His9 (nonahistidine) (N); purchased R&D Systems 2708-MS
T1 sequence (P21757 77-451 limits assumed): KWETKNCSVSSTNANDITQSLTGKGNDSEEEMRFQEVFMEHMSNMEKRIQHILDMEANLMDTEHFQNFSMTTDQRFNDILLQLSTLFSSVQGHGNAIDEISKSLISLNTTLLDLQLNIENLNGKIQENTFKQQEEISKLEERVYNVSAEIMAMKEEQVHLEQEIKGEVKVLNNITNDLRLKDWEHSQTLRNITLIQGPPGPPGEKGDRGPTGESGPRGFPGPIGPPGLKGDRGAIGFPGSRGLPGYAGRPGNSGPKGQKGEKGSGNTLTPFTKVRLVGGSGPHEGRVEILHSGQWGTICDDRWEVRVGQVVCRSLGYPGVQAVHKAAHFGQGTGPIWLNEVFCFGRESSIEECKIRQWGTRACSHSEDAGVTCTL
Description: The ability of anti-MSR1 antibodies disclosed herein to block the binding of various ligands to human MSR1 was measured using three competition sandwich ELISA assays. The ligands used in the assays were: (1) acetylated LDL (Ac-LDL), (2) oxidized LDL (Ox-LDL), and (3) advanced glycation end-products of bovine serum albumin (AGE-BSA).
Anti-MSR1 antibodies or isotype control antibodies were serially diluted as appropriate for each tested ligand and added in duplicate for each serial dilution set to microtiter plates coated with His9-hMSR1. Buffer alone was also added to wells on each coat. […] This assay was conducted in four different assay runs.
Data analysis was performed using a sigmoidal dose-response model within Prism™ software (GraphPad). Percent blockade at maximum concentration of the antibody tested in each assay was calculated as an indicator of the ability of the antibodies to block the binding of Ac-LDL, Ox-LDL or biot-AGE-BSA to His9-hMSR1 on the plate relative to the baseline of the assay. In the calculation, binding signal of the same concentrations of Ac-LDL, Ox-LDL, or biot-AGE-BSA used for the assays in the absence of antibody was referenced as 100% binding or 0% blocking, while the baseline of the assay, defined as binding signal of the sample of buffer without MSR1 ligands or antibody, was referenced as 0% binding or 100% blocking. The maximum percent blockade at the highest concentration of antibody tested in each assay are reported for all antibodies.

[3] = test system: LPS-induced IL-1β release in differentiated THP-1 cells; assay: LPS-mediated IL-1β release assay; assay type: cell-based, human; conditions: for IC50: 100 ng/ml LPS for 5 hours, read-out: IC50, inhibition of LPS-induced IL-1β secretion
Description: To test the anti-inflammatory properties of anti-MSR1 antibody-steroid conjugates in vitro, a lipopolysaccharide (LPS)-mediated IL-1β release assay was performed. For the assay, THP-1 cells were seeded onto 96 well plates at 40,000 cells/well in media containing RPMI supplemented with 10% FBS and pencillin/streptomycinin and differentiated with 200 nM Phorbol Myristate Acetate (PMA) for 3 days. After the 3-day differentiation period, three-fold serial dilutions of antibody drug conjugates, unconjugated antibodies, or free payloads in fresh media were added to the cells at final concentration ranging from 100 nM to 0.01 nM. Media alone served as a blank control. Subsequently at 24, 48, or 72 hours later, cells were treated with 100 ng/ml LPS (InVivoGen, Cat #tlrl-eklps) for 5 hours. The cell media was then collected, and IL-1β levels were measured using a V-PLEX Proinflammatory Panel 1 human kit (Meso Scale Diagnostics, Cat #15049D-2) as per manufacturer's instructions. Subsequently, the plate was read on a Meso Scale Diagnostics instrument.
IC50 values were determined from a four-parameter logistic equation over a 10-point response curve (GraphPad Prism). All IC50 values are expressed in M (molar) concentration. The IC50 values and IL-1β amount at the maximum concentration of antibody-steroid conjugates or controls are shown in Table 22 each of the time point tested.

[4] = test system: Msr1^hu/hu ApoE^−/− mice, peritoneal cells; assay: Ex vivo LPS-induced cytokine production by peritoneal cells after in vivo dosing; set-up: species or system mouse; conditions: for Cytokine IL-6 / Cytokine KC-GRO / Cytokine TNF-α: ex vivo LPS
Description: To examine the anti-inflammatory effect of the anti-MSR1 antibody-steroid conjugates, an ex-vivo and in vivo LPS-induced inflammatory immune response model was performed.
Generation of a mouse inflammatory immune response model. Mice homozygously expressing human MSR1 extracellular domain in place of the mouse MSR1 extracellular domain and with a homozygous deletion of the ApoE gene were utilized (resulting mice referred to as Msr1^hu/hu ApoE^−/− mice).
Assay protocol for ex vivo LPS-induced responses. In ex vivo LPS challenge experiments, mice were intraperitoneally administered with 10 μL/g of anti-MSR1 antibody-steroid conjugates (H1H21234N-N297Q-LP13), isotype control steroid conjugate (Isotype control-LP13), unconjugated anti-MSR1 antibody (H1H21234N-N297Q) and isotype control antibodies at different time points (24, 48, and 72 hours) prior to harvesting the peritoneal cells from peritoneal cavity. […] All mice were sacrificed at 0 hour time point and peritoneal cells were obtained from the peritoneum by the peritoneal lavage technique. In brief, 5 mL of ice cold 1×PBS (ThermoFisher Scientific, Cat #20012027) containing 2% BSA (Gibco, Cat #A9576) and 0.6 mM EDTA (ThermoFisher Scientific, Cat #15575020) were injected into the peritoneal cavity using 27 g needle. […] The resuspended cells were plated at 500,000 cells per well in 24-well tissues culture plates and incubated with or without 10 ng/mL of LPS for 18 hours.
Measurement of cytokines at 18 hours post-LPS ex vivo challenge. Supernatants were collected into 96-well round bottom tissue culture plates at 18 hours post-ex vivo LPS challenge and stored at […] until further analysis. Cytokine concentrations in the supernatants were measured using a Proinflammatory Panel 1 (mouse) multiplex immunoassay kit (MesoScale Diagnostics, Cat #K15048D) according to manufacturer's instructions. Electrochemiluminescence was read on a Meso Scale Diagnostics SECTOR® instrument. Data analysis was performed using GraphPad Prism™ software. Statistical significance within the groups was determined by one-way Anova with Turkey's multiple comparison post-test (*p<0.01; **p<0.001; ***p<0.0001).

Msr1^hu/hu ApoE^−/− mice = assay: In vivo LPS-induced cytokine production in serum; set-up: species or system mouse; conditions: i.p. dosing 24 hours before LPS challenge; 2 hours post LPS challenge
[5] = administered 24 hours before peritoneal cell isolation
[6] = administered 48 hours before peritoneal cell isolation
[7] = administered 72 hours before peritoneal cell isolation

B1: H1H21227N-N297Q: "modified versions of 21227N (H1H21227N-N297Q and H1H21227N-N297D)"; anti-MSR1 antibody "with a N297Q single point mutation" (antibody, V domains shown)
VH: QVQLVQSGAEVKKPGASVKVSCKVSGYTLTELSIHWVRQVPGKGLEWMGGFDPEEGETIFAQEFRDRVTLTEDTSPDTAYMELSSLKSEDAAVYYCTTPRYCNNGICYDYWGQGTLVTVSS
VL: DIQMTQSPSSLSASVGDRVTITCRASQSISNYLNWYQQKPGKAPKLLIYTASSLQSGVPSRFSGSGSGTDFTLTISSLQTEDFATYYCQQSYSNFPITFGQGTRLEIKR
Ratio of 11 nM Antibody Binding Signal (RLU) to isotype control, HEK293.mfMSR1 [1]: 23
anti-MSR1 antibody blocking of Ox-LDL binding to His9-hMSR1 % Blocking [2]: 97%

B2: H1H21227N-N297D: "The 21227N antibody was also produced as a third version with a N297D mutation" (antibody, V domains shown)
VH: QVQLVQSGAEVKKPGASVKVSCKVSGYTLTELSIHWVRQVPGKGLEWMGGFDPEEGETIFAQEFRDRVTLTEDTSPDTAYMELSSLKSEDAAVYYCTTPRYCNNGICYDYWGQGTLVTVSS
VL: DIQMTQSPSSLSASVGDRVTITCRASQSISNYLNWYQQKPGKAPKLLIYTASSLQSGVPSRFSGSGSGTDFTLTISSLQTEDFATYYCQQSYSNFPITFGQGTRLEIKR
Ratio of 11 nM Antibody Binding Signal (RLU) to isotype control, HEK293.mfMSR1 [1]: 25
anti-MSR1 antibody blocking of Ox-LDL binding to His9-hMSR1 % Blocking [2]: 99%

B3: H1H21231N: "anti-MSR1 antibodies ... (21227N, 21231N, 21234N) were produced with the original human Fcγ portion"; "H1H" = human IgG1 Fc (antibody, V domains shown)
VH: EVQLVESGGGLVQPGGSLRLSCAASGFTFSDHYMDWVRQAPGKGLEWVGRTRNKANSHTTEYTASVTGRFTISRDDSRNSLYLQMNSLKTEDTAVYYCVRAGIIGTLFDYWGQGTLVTVSS
VL: DIQMTQFPSSLSASVGDRVTITCRASQSISSFLNWFQQKPGKAPKFLIYAASSLQSGVPSRFSGSGSGTDFTLTISSLQPEDFATYYCQQSYSSPPITFGQGTRLEIKR
modifications: human IgG1 Fc
notes: "anti-MSR1 antibodies ; (21227N, 21231N, 21234N) were produced with the original human Fcγ portion"; "H1H" = human IgG1 Fc
Ratio of 11 nM Antibody Binding Signal (RLU) to isotype control, HEK293.mfMSR1 [1]: 75
anti-MSR1 antibody blocking of Ox-LDL binding to His9-hMSR1 % Blocking [2]: 22%

B4: H1H21231N-N297Q: modified version of "21231N (H1H21231N-N297Q) anti-MSR1 antibodies" with "a N297Q single point mutation" (antibody, V domains shown)
VH: EVQLVESGGGLVQPGGSLRLSCAASGFTFSDHYMDWVRQAPGKGLEWVGRTRNKANSHTTEYTASVTGRFTISRDDSRNSLYLQMNSLKTEDTAVYYCVRAGIIGTLFDYWGQGTLVTVSS
VL: DIQMTQFPSSLSASVGDRVTITCRASQSISSFLNWFQQKPGKAPKFLIYAASSLQSGVPSRFSGSGSGTDFTLTISSLQPEDFATYYCQQSYSSPPITFGQGTRLEIKR
anti-MSR1 antibody blocking of Ox-LDL binding to His9-hMSR1 % Blocking [2]: 26%

B5: H1H21227N: "anti-MSR1 antibodies ... (21227N, 21231N, 21234N) were produced with the original human Fcγ portion"; "H1H" = human IgG1 Fc (antibody, V domains shown)
VH: QVQLVQSGAEVKKPGASVKVSCKVSGYTLTELSIHWVRQVPGKGLEWMGGFDPEEGETIFAQEFRDRVTLTEDTSPDTAYMELSSLKSEDAAVYYCTTPRYCNNGICYDYWGQGTLVTVSS
VL: DIQMTQSPSSLSASVGDRVTITCRASQSISNYLNWYQQKPGKAPKLLIYTASSLQSGVPSRFSGSGSGTDFTLTISSLQTEDFATYYCQQSYSNFPITFGQGTRLEIKR
modifications: human IgG1 Fc
notes: as for B3
Ratio of 11 nM Antibody Binding Signal (RLU) to isotype control, HEK293.mfMSR1 [1]: 26
anti-MSR1 antibody blocking of Ox-LDL binding to His9-hMSR1 % Blocking [2]: 100%

B6: H1H21234N-N297Q-LP13 (conjugate)
VH: QVQLQESGPGLVKPSETLSLTCTVTGGSISRNYWSWIRQPPGKGLEWIGYIYYSGSIDYNPSLKSRVTISVDTSKNQFSLKLSSMTAADTAVYYCARDRWNWKYGMDVWGQGTTVIVSS
VL: EIVLTQSPGTLSLSPGERATLSCRASQTVRNNYLAWYHQKPGQAPRLLIYGASSRATGIPDRFSGSGSGTDFTLTISRLEPEDFTVYYCHQYGNSPWTFGQGTKMEIKR
IC50 ([3]; 24-hour time point): 6.29 nM
IC50 ([3]; 48-hour time point): 3.59 nM
IC50 ([3]; 72-hour time point): 1.7 nM
IL1beta released at max concentration tested ([3]; 24 hour treatment before LPS): 119.43 pg/mL
IL1beta released at max concentration tested ([3]; 48 hour treatment before LPS): 69.3 pg/mL
IL1beta released at max concentration tested ([3]; 72 hour treatment before LPS): 70.31 pg/mL
Cytokine IL-6 [4, 5]: 21.1 ± 1.38**** ng/mL
Cytokine KC-GRO [4, 5]: 9.3 ± 1.7 ng/mL
Cytokine TNF-α [4, 5]: 0.26 ± 0.08*** ng/mL
Cytokine KC-GRO [4, 6]: 6.3 ± 2.3* ng/mL
Cytokine TNF-α [4, 6]: 0.58 ± 0.06* ng/mL
Cytokine IL-6 [4, 7]: 50.7 ± 14.1* ng/mL
Cytokine KC-GRO [4, 7]: 13.1 ± 1.1 ng/mL
Cytokine TNF-α [4, 7]: 0.47 ± 0.1** ng/mL
effect on ex vivo LPS-induced cytokine production (IL-6, KC-GRO, TNF-α) by peritoneal cells ([4]; i.p. dosing 24, 48, 72 hours (conjugates, antibodies) or 2 hours (free steroids) before cell harvest, 10 ng/mL LPS 18 hours): efficacious in inhibiting LPS-induced cytokine production by peritoneal cells in a time-dependent manner
effect on in vivo LPS-induced cytokine production in serum (Msr1^hu/hu ApoE^−/− mice): efficacious in inhibiting in vivo LPS-induced cytokine production in a dose-dependent manner
